Experimental data taken from doi:10.1101/324590 (bioRxiv, 2018).

B1: synthetic peptide encompassing the RHIM of M45 (peptide)
peptide: VRIMNGVSGIQIGNHNAMS
B2: RIPK1(497-583) after removal of MBP with thrombin (domain or fragment, human, UniProt Q13546 497-583, looked up)
chain: MPSLHNIPVPETNYLGNTPTMPFSSLPPTDESIKYTIYNSTGIQIGAYNYMEIGGTSSSLLDSTNTNFKEEPAAKYQAIFDNTTSLT
B3: YPet-RIPK1(497-583) (domain or fragment, human, UniProt Q13546 497-583, looked up)
chain: B2 chain
B4: RIPK1(497-583) after removal of His6-ubiquitin (domain or fragment, human, UniProt Q13546 497-583, looked up)
chain: B2 chain
B5: MBP-RIPK1(497-583) (domain or fragment, human, UniProt Q13546 497-583, looked up)
chain: B2 chain
B6: Alexa488-labelled RIPK1(497-583) (domain or fragment, human, UniProt Q13546 497-583, looked up)
chain: B2 chain
modifications: Alexa Fluor 488, covalent label, site not stated (degree of labelling 5%)
B7: mCHERRY-RIPK1(497-583) (domain or fragment, human, UniProt Q13546 497-583, looked up)
chain: B2 chain
B8: RIPK3(387-518) after removal of MBP with thrombin (domain or fragment, human, UniProt Q9Y572 387-518, looked up)
chain: TSSDSMAQPPQTPETSTFRNQMPSPTSTGTPSPGPRGNQGAERQGMNWSCRTPEPNPVTGRPLVNIYNCSGVQVGDNNYLTMQQTTALPTWGLAPSGKGRGLQHPPPVGSQEGPKDPEAWSRPQGWYNHSGK
B9: YPet-RIPK3(387-518) (domain or fragment, human, UniProt Q9Y572 387-518, looked up)
chain: B8 chain
B10: M45(1-90) after removal of MBP with thrombin (domain or fragment, murine cytomegalovirus, UniProt Q06A28 1-90, looked up)
chain: MDRQPKVYSDPDNGFFFLDVPMPDDGQGGQQTATTAAGGAFGVGGGHSVPYVRIMNGVSGIQIGNHNAMSIASCWSPSYTDRRRRSYPKT
B11: MBP-M45(1-90) (domain or fragment, murine cytomegalovirus, UniProt Q06A28 1-90, looked up)
chain: B10 chain
B12: M45(1-90) after removal of His6-ubiquitin (domain or fragment, murine cytomegalovirus, UniProt Q06A28 1-90, looked up)
chain: B10 chain
B13: YPet-M45 (domain or fragment, murine cytomegalovirus, UniProt Q06A28 1-90, looked up)
chain: B10 chain
B14: mCHERRY-M45(1-90WT) (domain or fragment, murine cytomegalovirus, UniProt Q06A28 1-90, looked up)
chain: B10 chain
B15: ECFP-M45(1-90) (domain or fragment, murine cytomegalovirus, UniProt Q06A28 1-90, looked up)
chain: B10 chain
B16: His-Ub-M45(1-90) (domain or fragment, murine cytomegalovirus, UniProt Q06A28 1-90, looked up)
chain: B10 chain

Legend:
[1] = biological target: the molecule itself; assay: transmission electron microscopy + thioflavin T fluorescence
[2] = biological target: the molecule itself; assay: sedimentation of insoluble material + transmission electron microscopy
[3] = biological target: B7; assay: single-molecule two-colour fluorescence coincidence spectroscopy
[4] = biological target: B14; assay: as above
[5] = biological target: the molecule itself; assay: negative-stain transmission electron microscopy
[6] = biological target: the molecule itself; assay: SEC
[7] = biological target: T1, His-Ub-RIPK1(497-583) (human, UniProt Q13546 497-583); assay: fluorescence polarisation
T1 sequence (looked up): B2 chain

[8] = biological target: T2, His-Ub-RIPK3(387-518) (human, UniProt Q9Y572 387-518); assay: fluorescence polarisation
T2 sequence (looked up): B8 chain

[9] = biological target: B16; assay: fluorescence polarisation
[10] = biological target: B9; assay: single-molecule two-colour fluorescence coincidence spectroscopy
[11] = biological target: B15; assay: confocal fluorescence microscopy of fibrils
[12] = biological target: the molecule itself; assay: thioflavin T fluorescence kinetics
[13] = biological target: T3, mCHERRY-RIPK3(387-518) (human, UniProt Q9Y572 387-518); assay: single-molecule two-colour fluorescence coincidence spectroscopy
T3 sequence (looked up): B8 chain

[14] = biological target: the molecule itself; assay: confocal fluorescence microscopy of fibrils
[15] = biological target: the molecule itself; assay: single-molecule two-colour fluorescence coincidence spectroscopy
[16] = biological target: B9; assay: confocal fluorescence microscopy of fibrils
[17] = biological target: the molecule itself; assay: X-ray fibre diffraction

B1
binding result [1]: binds

B2
binding result [2]: binds

B3
binding result [3]: binds
binding result [4]: binds

B4
binding result [5]: binds

B5
binding result [6]: binds

B6
binding result [7]: binds
binding result [8]: binds
binding result [9]: binds

B7
binding result [10]: binds
binding result [11]: binds
binding result [12]: binds

B8
binding result [2]: binds

B9
binding result [13]: binds

B10
binding result [2]: binds

B11
binding result [6]: binds

B12
binding result [5]: binds

B13
binding result [14]: binds

B14
binding result [10]: binds
binding result [15]: binds

B15
binding result [16]: binds

B16
binding result [17]: binds
